This is an account of results in patent US20230322893A1, “CD47 BINDER AND LIPOSOME COMPLEX FOR CANCER TREATMENT” (priority 2020, published 2023).

The target of one data set is recombinant CD47 protein (Homo sapiens, UniProt Q08722). Briefly: SPR, CD47 conjugated to CM5 chip by EDC-NHS. Format: binding. How it is done: Specifically, the recombinant CD47 protein was conjugated to the surface of the CM5 chip by a target SPR reaction of 250 RU through an EDC-NHS reaction to be used, and for HBS-P, the sensogram obtained through a process of association for 3 minutes and dissociation for 10 minutes at a flow rate of 30 µL/minutes was analyzed with the BiaEvaluation software using a 1:1 binding model and global fitting.
Sequence of recombinant CD47 protein (Q08722 19-323): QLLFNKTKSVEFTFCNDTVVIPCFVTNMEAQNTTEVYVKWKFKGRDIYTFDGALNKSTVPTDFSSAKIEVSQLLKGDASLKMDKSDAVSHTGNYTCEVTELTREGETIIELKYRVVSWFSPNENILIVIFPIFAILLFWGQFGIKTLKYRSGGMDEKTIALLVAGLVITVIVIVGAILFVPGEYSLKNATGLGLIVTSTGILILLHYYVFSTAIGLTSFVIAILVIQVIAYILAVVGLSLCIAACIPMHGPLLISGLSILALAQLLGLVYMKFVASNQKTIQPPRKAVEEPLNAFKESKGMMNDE
For orientation: SPR reads the build-up and loss of mass on a sensor chip optically.

For the next data set, the system named is dAMP. To be noted: read-out: Preferred Substrate (Km), dAMP; cited from earlier work.
The next data set deals with dGMP. To be noted: read-out: Preferred Substrate (Km), dGMP; cited from earlier work.
A further data set has as its system dUMP. To be noted: read-out: Preferred Substrate (Km), dUMP; cited from earlier work.
Data set [1] deals with dTMP. The following applies: read-out: Preferred Substrate (Km), dTMP; cited from earlier work.
Data set [2] has as its system colon cancer cell line HCT-116. Briefly: Trypan blue assay, cell viability and cell growth inhibition. In kind it is cell-based. The following applies: HCT-116, 1.25 µg mRNA, 24 hours. How it is done: T001 is more specific to the nucleic acid T due to its structural difference from NT5M. Therefore, nucleic acid imbalance due to the loss of dTTP rather than the overall loss of nucleic acid may have a greater effect on cancer cell metabolism and thereby inhibit the growth of cancer cells. […] Each mRNA was transfected into the colon cancer cell line HCT-116, and 24 hours thereafter, Trypan blue assay was performed and the results of cell viability and cell growth inhibition on HCT-116 are shown in FIG. 13. The specific experimental method is as follows.
HCT-116 cells were transfected with 1.25 µg each of non-mature form NT5M, mature form NT5M, and CT mRNA. After 24 hours, the resultants were each treated with trypsin and the cells were harvested using a centrifuge. After resuspending the harvested cells with 1× DPBS, a certain amount of cells were mixed with trypan blue reagent at a 1:1 ratio. After incubation for 2 minutes at room temperature (RT), the number of cells was counted using a hemocytometer. After obtaining the number of cells stained and unstained with the trypan blue reagent, the number of viable and non-viable cells was obtained, and then divided by the total number of cells to obtain the viability. Each experiment was repeated three or more times to evaluate the significance.

Data set [3] concerns dTMP. Briefly: 5′-nucleotidase preferred substrate Km, dTMP. In kind it is biochemical. The following applies: according to Table 4.
[4] abbreviates: CM5 chip, CD47 250 RU, 30 µL/minutes.

The term Km denotes the concentration of substrate that gives half-maximal velocity.

B1: SV4: binder of SEQ ID NO: 2; SV1 with lysines at the 11th and 104th positions substituted with leucine (protein)
chain: MEEELQIIQPDLSVSVAAGESAILHCTITSLFPVGPIQWFRGAGPARVLIYNQRQGPFPRVTTVSETTKRENMDFSISISNITPADAGTYYCIKFRKGSPDTEFLSGAGTELSVRAKPS
modifications: CD47 binder SV4
As for B1, the “binding activity when conjugated with DSPE and when inserted into liposomes” value with recombinant CD47 protein is “maintained within the error range”. In addition, in the data set with recombinant CD47 protein (setting [4]), the ka was determined as 164000 M⁻¹ s⁻¹ and the kd stood at 0.000275 s⁻¹.

B2: SV4-DSPE: DSPE-conjugated form of SV4 (NHS-activated DSPE-PEG2000 with SV4 protein) (conjugate)
chain: B1 chain
As for B2, in the data set with recombinant CD47 protein (setting [4]), the kd was 0.000256 s⁻¹.

B3: hdNT-1: Human cytosolic 5′deoxyribonucleotidase (protein, UniProt Q8TCD5 1-201, looked up)
5'(3')-deoxyribonucleotidase, …: MARSVRVLVDMDGVLADFEAGLLRGFRRRFPEEPHVPLEQRRGFLAREQYRALRPDLADKVASVYEAPGFFLDLEPIPGALDAVREMNDLPDTQVFICTSPLLKYHHCVGEKYRWVEQHLGPQFVERIILTRDKTVVLGDLLIDDKDTVRGQEETPSWEHILFTCCHNRHLVLPPTRRRLLSWSDNWREILDSKRGAAQRE
Take B3: the Km in the data set with dAMP is 3000 µM; with dGMP it was 3300 µM; in the data set with dUMP, 1500 µM; with dTMP [1] it was 1500 µM.

B4: T001: Thymidylate 5′-phosphohydrolase derived from bacteriophage PBS2, gene sequence optimized (SEQ ID NO: 3); final drug form mRNA (protein)
chain: MVFSIKEPFSIVTDCDEVLTDISPLWVHKIQQNADYFGKYFDLSKLEGLEFGTFEHYQTVLSRPEFHLNKWLRKENLVLSDEEEKELFERFYSLYDNDEFYEDCMPTKMCEGIYKLSLQKFVDKIYVVTRTSEGTKEGKRKFIETFLNSNKVEIIFVGKNEKKSDYIKNLKNVKMIVEDELSNINDIVENCNDGFEEVDTYIPSTGYNNKDIDGFNENLMKKGFNAVPYVIIERPETEEKAV
modifications: T001
notes: final drug form mRNA
As for B4, the “effect on cells (cell viability and cell growth inhibition)” value in data set [2] is given as “greater than that of human NT5M”. The Km with dGMP is 700 µM; with dUMP, 800 µM; in the data set with dTMP [1], 10 µM.

B5: mdNT-1: Murine cytosolic 5′deoxyribnucleotidase (protein, UniProt Q9JM14 1-200, looked up)
5'(3')-deoxyribonucleotidase, …: MAVKRPVRVLVDMDGVLADFESGLLQGFRRRFPEEPHVPLEQRRGFLANEQYGALRPDLAEKVASVYESPGFFLNLEPIPGALDALREMNDMKDTEVFICTTPLLKYDHCVGEKYRWVEQNLGPEFVERIILTRDKTVVMGDLLIDDKDNIQGLEETPSWEHILFTCCHNQHLALPPTRRRLLSWSDNWRGIIESKRASL
As to B5, the Km with dAMP is 1000 µM; with dGMP it was 1200 µM; in the data set on dUMP it was 800 µM; in the data set with dTMP [1], 1400 µM.

B6: NT5M (hdNT-2): human mitochondrial 5′-nucleotidase (SEQ ID NO: 32) (protein)
chain: MGGRALRVLVDMDGVLADFEGGFLRKFRARFPDQPFIALEDRRGFWVSEQYGRLRPGLSEKAISIWESKNFFFELEPLPGAVEAVKEMASLQNTDVFICTSPIKMFKYCPYEKYAWVEKYFGPDFLEQIVLTRDKTVVSADLLIDDRPDITGAEPTPSWEHVLFTACHNQHLQLQPPRRRLHSWADDWKAILDSKRPC
modifications: NT5M
For the molecule B6, the Km in the data set with dGMP is 90 µM; with dUMP, 160 µM; with dTMP [1] it was 300 µM. The “affinity for dTMP lower than T001” value in the data set on dTMP [3] came to 30 times.
